Source: US20240209061A1, “FUSION PROTEINS AND USES THEREOF” (Pfizer Inc., priority 2020, published 2024)

Tests used:
[1] = tested on: peripheral blood mononuclear cells (PBMC); experiment: RESTORE cytokine release assay in absence of TCR stimulation; assay type: cell-based, human; parameters: IFNγ: unit not given beside the values
In short: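 Fresh healthy-donor PBMC were precultured 48 h at […] in RPMI1640 with 10% autologous plasma, then resuspended at 10^6/ml with soluble variant CD80-Fc. After 48 h without TCR stimulation, supernatant IL-2 and IFNγ were measured by ELISA; values are means of 3 technical replicates per donor.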

[2] = Thermal stability by Differential Scanning calorimetry (DSC); assay type: physicochemical
[3] = Pharmacokinetics in cynomolgus monkeys; assay type: in vivo; settings: cynomolgus monkey
Method: PK of variant CD80-Fc fusion proteins was assessed in non-human primates. […] A ligand binding assay using the Gyrolab Immunoassay platform was used to quantitate CD80-Fc molecules in cynomolgus monkey serum following dose administration. CD80-Fc constructs were captured onto the Gyrolab Bioaffy CD using a biotinylated monoclonal anti-human CD80 antibody (Thermo Fisher Cat #13-0809-82). Bound CD80-Fc constructs were detected using a mouse anti-human Fc antibody (SouthernBiotech Cat #9040-01) that was labeled with Alexa Fluor 647. Sample concentrations were determined by interpolation from a calibration curve that were fit using a 5-parameter logistic regression model. The range of quantitation of the assay was 100-15000 ng/ml in 100% serum. […] AUC (Area Under the Curve); Cmax (Maximum Concentration observed); Tmax (Time of Maximum concentration observed)

[4] = tested on: Renca murine renal carcinoma tumor cells; experiment: Renca murine renal carcinoma model; assay type: in vivo, mouse; settings: for % tumor growth inhibition: Day 18; for # IFNγ-producing spots (splenic tumor-reactive T cells): spleen Day 9, average of n = 4 mice; for CD8^+ T cell infiltrates (% CD45): Renca, ~1 week after first dose, n=4
Method: Renca murine renal carcinoma tumor cells (1 million) were subcutaneously implanted in the hind flank of female Balb/c mice. Five days after tumor implantation, PBS vehicle control or variant CD80-Fc fusion proteins were dosed intravenously at 0.3 and 1 mg/kg (on Day 0 and Day 3) or 3 mg/kg (Day 0, Day 3 and Day 6). Tumor volume was determined by caliper measurements obtained in 2 dimensions and calculated as width^2×length/2. Error bars are depicted as ±SEM.
Pharmacodynamic (PD) modulation with variant CD80-Fc fusion proteins was assessed by measuring tumor-reactive T cells in the spleen using IFNγ ELIspot. Single-cell suspensions were generated from dissociated spleens taken at Day 9 after the first dose of CD80-Fc. Splenocytes were incubated with irradiated tumor cells overnight at 37° C., and the number of IFNγ-producing spots were measured using the IFNγ ELIspot Kit (BD Biosciences #551083).
Cytotoxic CD8^+ T cells are responsible for killing cancer cells and the measurement of CD8^+ T cells that have infiltrated tumors commonly correlates with efficacy for immune-oncology therapies. For all in vivo studies, tumors were collected ˜1 week after the first dose and dissociated by mincing, followed by incubation in an enzymatic digestion cocktail and homogenization. The resulting cell suspension was filtered and washed, and single cells were stained with antibodies to CD45, CD8, and a viability dye to detect tumor-infiltrating lymphocytes (TILs) by flow cytometry. Data were acquired on a BD LSRFortessa flow cytometer or a Cytek Aurora spectral flow cytometer. Table 31 and FIG. 18 show the amount of tumor-infiltrating CD8+ T cells expressed as a percentage of total immune cells (CD45+). Each value is the average of n=4 mice per group. Treatment with all variant CD80-Fc fusion proteins led to increase in CD8+ TILs in various tumor models.

For “CD80-WT-Fc: wild-type human CD80 extracellular domain fused to human IgG1 Fc (C220S) [reference compound]”, the IFNγ ([1]; Table 20, D222, 1 μg/ml) was 4.3, the IL-2 ([1]; Table 20, D222, 1 μg/ml) was 7.7 and the IFNγ ([1]; Table 20, D222, 10 μg/ml) was 3.3. For the same substance, the IL-2 ([1]; Table 20, D222, 10 μg/ml) was 9.3, the IFNγ ([1]; Table 20, D281, 1 μg/ml) was 3.0 and the IL-2 ([1]; Table 20, D281, 1 μg/ml) was 3.0. For the same substance, the IFNγ ([1]; Table 20, D281, 10 μg/ml) was 3.3, the IL-2 ([1]; Table 20, D281, 10 μg/ml) was 2.0 and the IFNγ ([1]; Table 20, D462, 1 μg/ml) was 6.0. For the same substance, the IL-2 ([1]; Table 20, D462, 1 μg/ml) was 1.7, the IFNγ ([1]; Table 20, D462, 10 μg/ml) was 7.3 and the IL-2 ([1]; Table 20, D462, 10 μg/ml) was 2.0. The IFNγ ([1]; Table 20, D547, 1 μg/ml) was 4.0, the IL-2 ([1]; Table 20, D547, 1 μg/ml) was 9.0 and the IFNγ ([1]; Table 20, D547, 10 μg/ml) was 3.3. The IL-2 ([1]; Table 20, D547, 10 μg/ml) was 5.3, the IL-2 ([1]; Table 21, D132, 1.9 μg/ml) was 0.0 and the IL-2 ([1]; Table 21, D132, 5.6 μg/ml) was 0.0. For the same substance, the IL-2 ([1]; Table 21, D132, 16.7 μg/ml) was 0.3, the IL-2 ([1]; Table 21, D149, 1.9 μg/ml) was 0.3 and the IL-2 ([1]; Table 21, D149, 5.6 μg/ml) was 4.3. It also gave an IL-2 ([1]; Table 21, D149, 16.7 μg/ml) of 0.0, an IL-2 ([1]; Table 21, D149, 50 μg/ml) of 0.0 and an IL-2 ([1]; Table 21, D379, 1.9 μg/ml) of 3.3. For the same substance, the IL-2 ([1]; Table 21, D379, 50 μg/ml) was 0.3, the IL-2 ([1]; Table 21, D399, 1.9 μg/ml) was 0.0 and the IL-2 ([1]; Table 21, D399, 5.6 μg/ml) was 0.0. The IL-2 ([1]; Table 21, D399, 16.7 μg/ml) was 0.0, the IL-2 ([1]; Table 21, D399, 50 μg/ml) was 3.0 and the IL-2 ([1]; Table 21, D417, 1.9 μg/ml) was 5.7. For the same substance, the IL-2 ([1]; Table 21, D417, 5.6 μg/ml) was 10.7, the IL-2 ([1]; Table 21, D417, 16.7 μg/ml) was 0.3 and the IL-2 ([1]; Table 21, D417, 50 μg/ml) was 0.3. It also gave an IL-2 ([1]; Table 21, D518, 1.9 μg/ml) of 4.7, an IL-2 ([1]; Table 21, D518, 5.6 μg/ml) of 4.7 and an IL-2 ([1]; Table 21, D518, 16.7 μg/ml) of 1.3. The IL-2 ([1]; Table 21, D518, 50 μg/ml) was 2.7, the IFNγ ([1]; Table 22, D132, 1.9 μg/ml) was 14.3 and the IFNγ ([1]; Table 22, D132, 5.6 μg/ml) was 0.0. The IFNγ ([1]; Table 22, D132, 16.7 μg/ml) was 0.0, the IFNγ ([1]; Table 22, D132, 50 μg/ml) was 12.3 and the IFNγ ([1]; Table 22, D149, 5.6 μg/ml) was 0.0. For the same substance, the IFNγ ([1]; Table 22, D149, 16.7 μg/ml) was 0.0, the IFNγ ([1]; Table 22, D149, 50 μg/ml) was 5.7 and the IFNγ ([1]; Table 22, D379, 1.9 μg/ml) was 0.3. The IFNγ ([1]; Table 22, D379, 5.6 μg/ml) was 0.0, the IFNγ ([1]; Table 22, D379, 16.7 μg/ml) was 0.0 and the IFNγ ([1]; Table 22, D379, 50 μg/ml) was 0.0. For the same substance, the IFNγ ([1]; Table 22, D399, 1.9 μg/ml) was 0.0, the IFNγ ([1]; Table 22, D399, 5.6 μg/ml) was 0.0 and the IFNγ ([1]; Table 22, D399, 16.7 μg/ml) was 0.0. It also gave an IFNγ ([1]; Table 22, D399, 50 μg/ml) of 18.3, an IFNγ ([1]; Table 22, D417, 1.9 μg/ml) of 0.0 and an IFNγ ([1]; Table 22, D417, 5.6 μg/ml) of 146.7. The IFNγ ([1]; Table 22, D417, 16.7 μg/ml) was 13.3, the IFNγ ([1]; Table 22, D417, 50 μg/ml) was 0.0 and the IFNγ ([1]; Table 22, D518, 1.9 μg/ml) was 0.0. It also gave an IFNγ ([1]; Table 22, D518, 5.6 μg/ml) of 0.0, an IFNγ ([1]; Table 22, D518, 16.7 μg/ml) of 0.0 and an IFNγ ([1]; Table 22, D518, 50 μg/ml) of 0.0. For the same substance, the “DSC Tm1” value ([2]; Glu pH 4.5) was 62.78 ± 0.03 °C, the “DSC Tm1” value ([2]; His pH 5.8) was 63.40 ± 0.35 °C and the “DSC Tm1” value ([2]; PBS) was 59.52 ± 0.07 °C. The “DSC Tm1” value ([2]; Tris pH 7.5) was 64.77 ± 0.14 °C, the AUC ([3]; 3 mpk IV) was 2480 µg·h/mL and the Cmax ([3]; 3 mpk IV) was 90.7 µg/mL. It also gave a Tmax ([3]; 3 mpk IV) of 4.98 min, an AUC ([3]; 15 mpk IV) of 13900 µg·h/mL and a Cmax ([3]; 15 mpk IV) of 460 µg/mL. It also gave a Tmax ([3]; 15 mpk IV) of 4.98 min, an AUC ([3]; 50 mpk IV) of 37000 µg·h/mL and a Tmax ([3]; 50 mpk IV) of 4.98 min. The “Number of tumor-free mice” value ([4]; 0.3 mg/kg) was 5/10, the “Day 18 tumor volume” value ([4]; 0.3 mg/kg IV, Day 0 and 3) was 199.0 ± 114.0 mm^3 and the “% tumor growth inhibition” value ([4]; 0.3 mg/kg) was 85.6%. For the same substance, the “# IFNγ-producing spots (splenic tumor-reactive T cells)” value (from here on “# IFNγ-producing spots”) ([4]; 0.3 mg/kg) was 373.67, the “Number of tumor-free mice” value ([4]; 1 mg/kg) was 5/10 and the “Day 18 tumor volume” value ([4]; 1 mg/kg IV, Day 0 and 3) was 79.6 ± 25.5 mm^3. The “% tumor growth inhibition” value ([4]; 1 mg/kg) was 96.2%, the “# IFNγ-producing spots” value ([4]; 1 mg/kg) was 271.08 and the “Number of tumor-free mice” value ([4]; 3 mg/kg) was 6/7. The “Day 18 tumor volume” value ([4]; 3 mg/kg IV, Day 0, 3 and 6) was 73.0 ± 69.0 mm^3, the “% tumor growth inhibition” value ([4]; 3 mg/kg) was 93.7% and the “# IFNγ-producing spots” value ([4]; 3 mg/kg) was 288.5. The “CD8^+ T cell infiltrates (% CD45)” value ([4]; 3 mg/kg) was 38.6 % CD45.

“CD80-K89Q-D90Q-Fc: variant CD80 ECD (K89Q, D90Q) fused to human IgG1 Fc” showed an IFNγ ([1]; Table 20, D222, 1 μg/ml) of 3.7, an IL-2 ([1]; Table 20, D222, 1 μg/ml) of 4.3 and an IFNγ ([1]; Table 20, D222, 10 μg/ml) of 4.0. For the same substance, the IL-2 ([1]; Table 20, D222, 10 μg/ml) was 4.0, the IFNγ ([1]; Table 20, D281, 1 μg/ml) was 3.3 and the IL-2 ([1]; Table 20, D281, 1 μg/ml) was 2.3. For the same substance, the IFNγ ([1]; Table 20, D281, 10 μg/ml) was 6.7, the IFNγ ([1]; Table 20, D462, 1 μg/ml) was 7.0 and the IFNγ ([1]; Table 20, D462, 10 μg/ml) was 15.0. It also gave an IL-2 ([1]; Table 20, D462, 10 μg/ml) of 1.7, an IFNγ ([1]; Table 20, D547, 1 μg/ml) of 4.0 and an IL-2 ([1]; Table 20, D547, 1 μg/ml) of 6.3. The IFNγ ([1]; Table 20, D547, 10 μg/ml) was 8.0, the IL-2 ([1]; Table 20, D547, 10 μg/ml) was 3.3 and the “DSC Tm1” value ([2]; PBS) was 59.67 ± 0.10 °C. The AUC ([3]; 3 mpk IV) was 1230 µg·h/mL, the “AUC fold-increase over WT” value ([3]; 3 mpk IV) was 0.50 and the Cmax ([3]; 3 mpk IV) was 89.4 µg/mL. For the same substance, the Tmax ([3]; 3 mpk IV) was 4.98 min, the AUC ([3]; 15 mpk IV) was 12100 µg·h/mL and the “AUC fold-increase over WT” value ([3]; 15 mpk IV) was 0.87. The Cmax ([3]; 15 mpk IV) was 570 µg/mL, the Tmax ([3]; 15 mpk IV) was 4.98 min and the AUC ([3]; 50 mpk IV) was 27300 µg·h/mL. The “AUC fold-increase over WT” value ([3]; 50 mpk IV) was 0.74, the Cmax ([3]; 50 mpk IV) was 1420 µg/mL and the Tmax ([3]; 50 mpk IV) was 4.98 min. The “Number of tumor-free mice” value ([4]; 0.3 mg/kg) was 2/10, the “Day 18 tumor volume” value ([4]; 0.3 mg/kg IV, Day 0 and 3) was 743.2 ± 159.5 mm^3 and the “% tumor growth inhibition” value ([4]; 0.3 mg/kg) was 37.4%. The “Number of tumor-free mice” value ([4]; 1 mg/kg) was 3/10, the “Day 18 tumor volume” value ([4]; 1 mg/kg IV, Day 0 and 3) was 192.6 ± 89.3 mm^3 and the “% tumor growth inhibition” value ([4]; 1 mg/kg) was 86.1%. The “Number of tumor-free mice” value ([4]; 3 mg/kg) was 8/10, the “Day 18 tumor volume” value ([4]; 3 mg/kg IV, Day 0, 3 and 6) was 43.2 ± 21.8 mm^3 and the “% tumor growth inhibition” value ([4]; 3 mg/kg) was 99.8%. The “# IFNγ-producing spots” value ([4]; 3 mg/kg) was 152.17 and the “CD8^+ T cell infiltrates (% CD45)” value ([4]; 3 mg/kg) was 36.7 % CD45.
